Target: HLA-A*03:01 (Homo sapiens, UniProt P04439)
Assay: MHC binding assay (UV-ligand exchange, β2m ELISA)
Conditions: for Peptide exchange (MHC class I binding score, peptide exchange yield): binding to HLA-A*03:01, UV-ligand exchange, β2m ELISA
Text: Candidate peptides for T cell based therapies according to the present invention were further tested for their MHC binding capacity (affinity). The individual peptide-MHC complexes were produced by UV-ligand exchange, where a UV-sensitive peptide is cleaved upon UV-irradiation and exchanged with the peptide of interest as analyzed. Only peptide candidates that can effectively bind and stabilize the peptide-receptive MHC molecules prevent dissociation of the MHC complexes. To determine the yield of the exchange reaction, an ELISA was performed based on the detection of the light chain (β2m) of stabilized MHC complexes. The assay was performed as generally described in Rodenko et al. (Rodenko et al., 2006) 96 well MAXISorp plates (NUNC) were coated over night with 2 ug/ml streptavidin in PBS at room temperature, washed 4× and blocked for 1 h at 37° C. in 2% BSA containing blocking buffer. Refolded HLA-A*02:01/MLA-001 monomers served as standards, covering the range of 15-500 ng/ml. Peptide-MHC monomers of the UV-exchange reaction were diluted 100-fold in blocking buffer. Samples were incubated for 1 h at 37° C., washed four times, incubated with 2 ug/ml HRP conjugated anti-β2m for 1 h at 37° C., washed again and detected with TMB solution that is stopped with […]. Absorption was measured at 450 nm. Candidate peptides that show a high exchange yield (preferably higher than 50%, most preferred higher than 75%) are generally preferred for a generation and production of antibodies or fragments thereof, and/or T cell receptors or fragments thereof, as they show sufficient avidity to the MHC molecules and prevent dissociation of the MHC complexes.

Substance	Peptide exchange (MHC class I binding score, peptide exchange yield)	binding to HLA-A*03
53 (KQALSLVRK; listed as Homo sapiens) [compound 53]	+++ (>50 = +++)	
87 (RLASVGLDAK; listed as Homo sapiens) [compound 87]	++++ (>75% = ++++)	
92 (KRIPFRPLAK; listed as Homo sapiens) [compound 92]	++ (>20% = ++)	
105 (QVLDLQSVK; listed as Homo sapiens) [compound 105]	++ (>20% = ++)	
21 (SSLAELIAK; listed as Homo sapiens) [compound 21]	++ (>20% = ++)	
56 (TTYYPSPLNK; listed as Homo sapiens) [compound 56]	+++ (>50 = +++)	
96 (RAVSVNPGK; listed as Homo sapiens) [compound 96]	+ (>10% = +)	
32 (LLDAEPPILY; listed as Homo sapiens) [compound 32]	+ (>10% = +)	
55 (RLSAESKDLLK; listed as Homo sapiens) [compound 55]	+++ (>50 = +++)	
171 (ATIGLSVSK; listed as Homo sapiens) [compound 171]	++++ (>75% = ++++)	
76 (IINESLLFY; listed as Homo sapiens) [compound 76]	+++ (>50 = +++)	
98 (VSVAGSILAK; listed as Homo sapiens) [compound 98]	++ (>20% = ++)	
11 (PLPRPGAVLK; listed as Homo sapiens) [compound 11]	++ (>20% = ++)	
180 (RLKMAQESVSK; listed as Homo sapiens) [compound 180]	++++ (>75% = ++++)	
23 (RLSPGPRAY; listed as Homo sapiens) [compound 23]	+++ (>50 = +++)	
107 (ILNLNKMVK; listed as Homo sapiens) [compound 107]	+++ (>50 = +++)	
259 (RSYVPLAH; listed as Homo sapiens) [compound 259]	++++ (>75% = ++++)	
30 (ILDSSLLK; listed as Homo sapiens) [compound 30]	++ (>20% = ++)	
70 (VTAVASLLK; listed as Homo sapiens) [compound 70]	++++ (>75% = ++++)	
110 (IIFIPATILLK; listed as Homo sapiens) [compound 110]	++++ (>75% = ++++)	
91 (IMKRQVKCITK; listed as Homo sapiens) [compound 91]	+ (>10% = +)	

Substance	Peptide exchange (MHC class I binding score, peptide exchange yield)	binding to HLA-A*03
152 (KIICGVHYLY; listed as Homo sapiens) [compound 152]	+ (>10% = +)	
44 (HAFPPGPNY; listed as Homo sapiens) [compound 44]	+ (>10% = +)	
89 (VIYVICRHK; listed as Homo sapiens) [compound 89]	+++ (>50 = +++)	
26 (QLGYQAAVLK; listed as Homo sapiens) [compound 26]	+++ (>50 = +++)	
95 (FLGLAFHPK; listed as Homo sapiens) [compound 95]	++ (>20% = ++)	
163 (MLYYPSVSR; listed as Homo sapiens) [compound 163]	++++ (>75% = ++++)	
41 (RLGAARGQLR; listed as Homo sapiens) [compound 41]	++ (>20% = ++)	
223 (GISNPITTSK; listed as Homo sapiens) [compound 223]	++++ (>75% = ++++)	
189 (KVFEEPEDFLK; listed as Homo sapiens) [compound 189]	++ (>20% = ++)	
39 (KTQFPQLK; listed as Homo sapiens) [compound 39]	++ (>20% = ++)	
146 (TLLSYELAFK; listed as Homo sapiens) [compound 146]	++++ (>75% = ++++)	
182 (QICLPAIYK; listed as Homo sapiens) [compound 182]	++++ (>75% = ++++)	
191 (SLYNLGGAK; listed as Homo sapiens) [compound 191]	++++ (>75% = ++++)	
31 (HAFFPKTHR; listed as Homo sapiens) [compound 31]	++++ (>75% = ++++)	
72 (KLYPQCLQK; listed as Homo sapiens) [compound 72]	++++ (>75% = ++++)	
AVCGGVLVH (listed as Homo sapiens) [SEQ ID NO: 272]		binds to HLA-A*03
100 (TTNARILAR; listed as Homo sapiens) [compound 100]	+++ (>50 = +++)	
168 (ATNGKVLKK; listed as Homo sapiens) [compound 168]	++++ (>75% = ++++)	
209 (KILDRVLSRY; listed as Homo sapiens) [compound 209]	++++ (>75% = ++++)	
51 (VTADGALAMEK; listed as Homo sapiens) [compound 51]	+++ (>50 = +++)	
48 (KGWNGQIFK; listed as Homo sapiens) [compound 48]	+++ (>50 = +++)	

Substance	Peptide exchange (MHC class I binding score, peptide exchange yield)	binding to HLA-A*03
37 (EVILTTKTPK; listed as Homo sapiens) [compound 37]	++ (>20% = ++)	
10 (KARDLRTPK; listed as Homo sapiens) [compound 10]	+++ (>50 = +++)	
215 (KIWQNLRLK; listed as Homo sapiens) [compound 215]	+++ (>50 = +++)	
200 (RVLPPLTRILK; listed as Homo sapiens) [compound 200]	++++ (>75% = ++++)	
1 (RVYPHKTLY; listed as Homo sapiens) [compound 1]	+++ (>50 = +++)	
197 (RIVDYLLEK; listed as Homo sapiens) [compound 197]	++++ (>75% = ++++)	
79 (AVAAVLLSR; listed as Homo sapiens) [compound 79]	+++ (>50 = +++)	
154 (TIASVLVAR; listed as Homo sapiens) [compound 154]	++ (>20% = ++)	
143 (KTLGKIAEK; listed as Homo sapiens) [compound 143]	++++ (>75% = ++++)	
3 (LLYGNGPGYVLK; listed as Homo sapiens) [compound 3]	++++ (>75% = ++++)	
164 (RLAQYTIER; listed as Homo sapiens) [compound 164]	++++ (>75% = ++++)	
179 (KINPTASLK; listed as Homo sapiens) [compound 179]	+++ (>50 = +++)	
202 (RLFPGLYLGY; listed as Homo sapiens) [compound 202]	+++ (>50 = +++)	
252 (AVYNYPEGAAY; listed as Homo sapiens) [compound 252]	++++ (>75% = ++++)	
172 (SLLEADPFLK; listed as Homo sapiens) [compound 172]	+++ (>50 = +++)	
63 (SSFRPLLSK; listed as Homo sapiens) [compound 63]	++++ (>75% = ++++)	
82 (CLANYTVNK; listed as Homo sapiens) [compound 82]	++++ (>75% = ++++)	
271 (RLPLRVVKH; listed as Homo sapiens) [compound 271]	++++ (>75% = ++++)	
193 (IVYPSATDKTK; listed as Homo sapiens) [compound 193]	+++ (>50 = +++)	
36 (QIRAELMKK; listed as Homo sapiens) [compound 36]	++++ (>75% = ++++)	
2 (KVMPKQTWK; listed as Homo sapiens) [compound 2]	+++ (>50 = +++)	
